Laboratory results: US20110166062A1 (INDIANA UNIVERSITY RESEARCH AND TECHNOLOGY, published 2011)
Bridges are numbered along the chain shown (N, C = ends). Where no end group is shown, it is not given here.

B1: mt-107 (peptide)
peptide: HSQGTFISDYSKYLDEIHQKEFIAWLMNT-NH2
modifications: lactam 16-20; N-terminus assumed
SMILES: CC[C@H](C)[C@H](NC(=O)[C@H](Cc1ccccc1)NC(=O)[C@H](CCC(=O)O)NC(=O)[C@@H]1CCCCNC(=O)CC[C@H](NC(=O)[C@H](CC(=O)O)NC(=O)[C@H](CC(C)C)NC(=O)[C@H](Cc2ccc(O)cc2)NC(=O)[C@H](CCCCN)NC(=O)[C@H](CO)NC(=O)[C@H](Cc2ccc(O)cc2)NC(=O)[C@H](CC(=O)O)NC(=O)[C@H](CO)NC(=O)[C@@H](NC(=O)[C@H](Cc2ccccc2)NC(=O)[C@@H](NC(=O)CNC(=O)[C@H](CCC(N)=O)NC(=O)[C@H](CO)NC(=O)[C@@H](N)Cc2c[nH]cn2)[C@@H](C)O)[C@@H](C)CC)C(=O)N[C@@H]([C@@H](C)CC)C(=O)N[C@@H](Cc2c[nH]cn2)C(=O)N[C@@H](CCC(N)=O)C(=O)N1)C(=O)N[C@@H](C)C(=O)N[C@@H](Cc1c[nH]c2ccccc12)C(=O)N[C@@H](CC(C)C)C(=O)N[C@@H](CCSC)C(=O)N[C@@H](CC(N)=O)C(=O)N[C@H](C(N)=O)[C@@H](C)O
B2: mt-110 (peptide)
peptide: YSQGTFTSDYSIYLDEIHQKDFVNWLLAQ-NH2
modifications: lactam 16-20; N-terminus assumed
SMILES: CC[C@H](C)[C@H](NC(=O)[C@H](CO)NC(=O)[C@H](Cc1ccc(O)cc1)NC(=O)[C@H](CC(=O)O)NC(=O)[C@H](CO)NC(=O)[C@@H](NC(=O)[C@H](Cc1ccccc1)NC(=O)[C@@H](NC(=O)CNC(=O)[C@H](CCC(N)=O)NC(=O)[C@H](CO)NC(=O)[C@@H](N)Cc1ccc(O)cc1)[C@@H](C)O)[C@@H](C)O)C(=O)N[C@@H](Cc1ccc(O)cc1)C(=O)N[C@@H](CC(C)C)C(=O)N[C@@H](CC(=O)O)C(=O)N[C@H]1CCC(=O)NCCCC[C@@H](C(=O)N[C@@H](CC(=O)O)C(=O)N[C@@H](Cc2ccccc2)C(=O)N[C@H](C(=O)N[C@@H](CC(N)=O)C(=O)N[C@@H](Cc2c[nH]c3ccccc23)C(=O)N[C@@H](CC(C)C)C(=O)N[C@@H](CC(C)C)C(=O)N[C@@H](C)C(=O)N[C@@H](CCC(N)=O)C(N)=O)C(C)C)NC(=O)[C@H](CCC(N)=O)NC(=O)[C@H](Cc2c[nH]cn2)NC(=O)[C@H]([C@@H](C)CC)NC1=O
B3: mt-115 (peptide)
peptide: HSQGTFTSDYSKYLDEIHQKDFVNWLLAGGPSSGAPPPS-NH2
modifications: lactam 16-20; N-terminus assumed
SMILES: CC[C@H](C)[C@@H]1NC(=O)[C@@H](NC(=O)[C@H](CC(=O)O)NC(=O)[C@H](CC(C)C)NC(=O)[C@H](Cc2ccc(O)cc2)NC(=O)[C@H](CCCCN)NC(=O)[C@H](CO)NC(=O)[C@H](Cc2ccc(O)cc2)NC(=O)[C@H](CC(=O)O)NC(=O)[C@H](CO)NC(=O)[C@@H](NC(=O)[C@H](Cc2ccccc2)NC(=O)[C@@H](NC(=O)CNC(=O)[C@H](CCC(N)=O)NC(=O)[C@H](CO)NC(=O)[C@@H](N)Cc2c[nH]cn2)[C@@H](C)O)[C@@H](C)O)CCC(=O)NCCCC[C@@H](C(=O)N[C@@H](CC(=O)O)C(=O)N[C@@H](Cc2ccccc2)C(=O)N[C@H](C(=O)N[C@@H](CC(N)=O)C(=O)N[C@@H](Cc2c[nH]c3ccccc23)C(=O)N[C@@H](CC(C)C)C(=O)N[C@@H](CC(C)C)C(=O)N[C@@H](C)C(=O)NCC(=O)NCC(=O)N2CCC[C@H]2C(=O)N[C@@H](CO)C(=O)N[C@@H](CO)C(=O)NCC(=O)N[C@@H](C)C(=O)N2CCC[C@H]2C(=O)N2CCC[C@H]2C(=O)N2CCC[C@H]2C(=O)N[C@@H](CO)C(N)=O)C(C)C)NC(=O)[C@H](CCC(N)=O)NC(=O)[C@H](Cc2c[nH]cn2)NC1=O
B4: mt-120 (peptide)
peptide: YSQGTFTSDYSKYLDEQAAKEFIAWLMNGGPSSGAPPPS-NH2
modifications: lactam 16-20; N-terminus assumed
SMILES: CC[C@H](C)[C@H](NC(=O)[C@H](Cc1ccccc1)NC(=O)[C@H](CCC(=O)O)NC(=O)[C@@H]1CCCCNC(=O)CC[C@H](NC(=O)[C@H](CC(=O)O)NC(=O)[C@H](CC(C)C)NC(=O)[C@H](Cc2ccc(O)cc2)NC(=O)[C@H](CCCCN)NC(=O)[C@H](CO)NC(=O)[C@H](Cc2ccc(O)cc2)NC(=O)[C@H](CC(=O)O)NC(=O)[C@H](CO)NC(=O)[C@@H](NC(=O)[C@H](Cc2ccccc2)NC(=O)[C@@H](NC(=O)CNC(=O)[C@H](CCC(N)=O)NC(=O)[C@H](CO)NC(=O)[C@@H](N)Cc2ccc(O)cc2)[C@@H](C)O)[C@@H](C)O)C(=O)N[C@@H](CCC(N)=O)C(=O)N[C@@H](C)C(=O)N[C@@H](C)C(=O)N1)C(=O)N[C@@H](C)C(=O)N[C@@H](Cc1c[nH]c2ccccc12)C(=O)N[C@@H](CC(C)C)C(=O)N[C@@H](CCSC)C(=O)N[C@@H](CC(N)=O)C(=O)NCC(=O)NCC(=O)N1CCC[C@H]1C(=O)N[C@@H](CO)C(=O)N[C@@H](CO)C(=O)NCC(=O)N[C@@H](C)C(=O)N1CCC[C@H]1C(=O)N1CCC[C@H]1C(=O)N1CCC[C@H]1C(=O)N[C@@H](CO)C(N)=O
B5: mt-108 (peptide)
peptide: HSQGTFISDYSKALDEIHQKEFIAWLMNT-NH2
modifications: lactam 16-20; N-terminus assumed
SMILES: CC[C@H](C)[C@H](NC(=O)[C@H](Cc1ccccc1)NC(=O)[C@H](CCC(=O)O)NC(=O)[C@@H]1CCCCNC(=O)CC[C@H](NC(=O)[C@H](CC(=O)O)NC(=O)[C@H](CC(C)C)NC(=O)[C@H](C)NC(=O)[C@H](CCCCN)NC(=O)[C@H](CO)NC(=O)[C@H](Cc2ccc(O)cc2)NC(=O)[C@H](CC(=O)O)NC(=O)[C@H](CO)NC(=O)[C@@H](NC(=O)[C@H](Cc2ccccc2)NC(=O)[C@@H](NC(=O)CNC(=O)[C@H](CCC(N)=O)NC(=O)[C@H](CO)NC(=O)[C@@H](N)Cc2c[nH]cn2)[C@@H](C)O)[C@@H](C)CC)C(=O)N[C@@H]([C@@H](C)CC)C(=O)N[C@@H](Cc2c[nH]cn2)C(=O)N[C@@H](CCC(N)=O)C(=O)N1)C(=O)N[C@@H](C)C(=O)N[C@@H](Cc1c[nH]c2ccccc12)C(=O)N[C@@H](CC(C)C)C(=O)N[C@@H](CCSC)C(=O)N[C@@H](CC(N)=O)C(=O)N[C@H](C(N)=O)[C@@H](C)O
B6: mt-111 (peptide)
peptide: HSQGTFTSDYSKYLDEIHQKDFVNWLLAQ-NH2
modifications: lactam 16-20; N-terminus assumed
SMILES: CC[C@H](C)[C@@H]1NC(=O)[C@@H](NC(=O)[C@H](CC(=O)O)NC(=O)[C@H](CC(C)C)NC(=O)[C@H](Cc2ccc(O)cc2)NC(=O)[C@H](CCCCN)NC(=O)[C@H](CO)NC(=O)[C@H](Cc2ccc(O)cc2)NC(=O)[C@H](CC(=O)O)NC(=O)[C@H](CO)NC(=O)[C@@H](NC(=O)[C@H](Cc2ccccc2)NC(=O)[C@@H](NC(=O)CNC(=O)[C@H](CCC(N)=O)NC(=O)[C@H](CO)NC(=O)[C@@H](N)Cc2c[nH]cn2)[C@@H](C)O)[C@@H](C)O)CCC(=O)NCCCC[C@@H](C(=O)N[C@@H](CC(=O)O)C(=O)N[C@@H](Cc2ccccc2)C(=O)N[C@H](C(=O)N[C@@H](CC(N)=O)C(=O)N[C@@H](Cc2c[nH]c3ccccc23)C(=O)N[C@@H](CC(C)C)C(=O)N[C@@H](CC(C)C)C(=O)N[C@@H](C)C(=O)N[C@@H](CCC(N)=O)C(N)=O)C(C)C)NC(=O)[C@H](CCC(N)=O)NC(=O)[C@H](Cc2c[nH]cn2)NC1=O

These binders were tested against glucagon receptor (UniProt P47871 26-477, limits assumed) (assay: cell-based or functional assay).
Chain of glucagon receptor (P47871 26-477 limits assumed): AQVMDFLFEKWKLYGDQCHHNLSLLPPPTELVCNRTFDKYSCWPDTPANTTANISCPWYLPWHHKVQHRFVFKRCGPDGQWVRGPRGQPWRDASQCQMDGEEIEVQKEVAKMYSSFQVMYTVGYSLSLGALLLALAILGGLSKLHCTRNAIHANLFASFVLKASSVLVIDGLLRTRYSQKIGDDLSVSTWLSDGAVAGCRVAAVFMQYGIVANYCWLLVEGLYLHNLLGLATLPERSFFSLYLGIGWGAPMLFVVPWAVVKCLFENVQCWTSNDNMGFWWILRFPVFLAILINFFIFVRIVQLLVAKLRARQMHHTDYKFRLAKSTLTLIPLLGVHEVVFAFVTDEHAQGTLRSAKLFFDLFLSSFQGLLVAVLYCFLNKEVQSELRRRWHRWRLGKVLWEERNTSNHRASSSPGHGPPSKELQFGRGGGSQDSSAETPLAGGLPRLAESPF
With B1 the “EC50” value was 70 pM and the relative activity was 186%. B2 was tested, and the “EC50” value was 430 pM and the relative activity was 23.3%. With YSQGTFTSDYSKYLDEIHQKDFVNWLLAGGPSSGAPPPS-NH2 [mt-116] the “EC50” value was 787 pM and the relative activity was 18.7%. YSQGTFTSDYSKYLDEIHQKEFVNWLLAQ-NH2 [mt-118] was tested, and the “EC50” value was 40 pM and the relative activity was 125%. In the case of B3, the “EC50” value is reported as 440 pM and the relative activity is reported as 11.4%. With B4 the “EC50” value was 74 pM and the relative activity was 259%. In the case of B5, the “EC50” value is reported as 190 pM and the relative activity is reported as 68.4%. B6 was tested, and the “EC50” value was 270 pM and the relative activity was 85.2%. With YSQGTFTSDYSKYLDEIHQKDFVNWLLAQ-NH2 [mt-109] the “EC50” value was 130 pM and the relative activity was 76.9%.

These binders were tested against GLP-1 receptor (UniProt P43220 24-463, limits assumed) (assay: cell-based or functional assay).
In the case of B1, the “EC50” value is reported as 24800 pM and the relative activity is reported as 0.16%. B2 was tested, and the “EC50” value was 2020 pM and the relative activity was 1.49%. YSQGTFTSDYSKYLDEIHQKDFVNWLLAGGPSSGAPPPS-NH2 [mt-116] was tested, and the “EC50” value was 3800 pM and the relative activity was 1.07%. With YSQGTFTSDYSKYLDEIHQKEFVNWLLAQ-NH2 [mt-118] the “EC50” value was 1280 pM and the relative activity was 2.34%. In the case of B3, the “EC50” value is reported as 150 pM and the relative activity is reported as 20%. In the case of B4, the “EC50” value is reported as 399 pM and the relative activity is reported as 13.4%. In the case of B5, the “EC50” value is reported as 320 pM and the relative activity is reported as 12.5%. For B6, the “EC50” value was 660 pM and the relative activity was 10.6%. YSQGTFTSDYSKYLDEIHQKDFVNWLLAQ-NH2 [mt-109] was tested, and the “EC50” value was 3860 pM and the relative activity was 0.78%.

The binders below were run against T1, GIP receptor (UniProt P48546 22-466) (assay: cell-based or functional assay).
T1 sequence (looked up): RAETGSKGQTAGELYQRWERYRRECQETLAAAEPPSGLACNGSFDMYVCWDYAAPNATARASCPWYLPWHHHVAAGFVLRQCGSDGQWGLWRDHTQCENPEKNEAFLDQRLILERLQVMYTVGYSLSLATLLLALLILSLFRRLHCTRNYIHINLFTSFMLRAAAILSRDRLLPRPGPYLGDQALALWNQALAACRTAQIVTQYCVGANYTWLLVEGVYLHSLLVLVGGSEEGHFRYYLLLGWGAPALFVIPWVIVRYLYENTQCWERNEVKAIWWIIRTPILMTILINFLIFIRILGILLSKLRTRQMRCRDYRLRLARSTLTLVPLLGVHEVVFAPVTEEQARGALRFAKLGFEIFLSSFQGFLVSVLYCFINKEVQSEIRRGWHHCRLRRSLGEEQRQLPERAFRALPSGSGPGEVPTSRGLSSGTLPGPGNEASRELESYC
For B1, the “EC50” value was 3370 pM and the relative activity was 0.74%. With B2 the “EC50” value was 478 pM and the relative activity was 9.62%. For YSQGTFTSDYSKYLDEIHQKDFVNWLLAGGPSSGAPPPS-NH2 [mt-116], the “EC50” value was 617 pM and the relative activity was 7.62%. For YSQGTFTSDYSKYLDEIHQKEFVNWLLAQ-NH2 [mt-118], the “EC50” value was 736 pM and the relative activity was 6.39%. B3 was tested, and the “EC50” value was 3580 pM and the relative activity was 1.31%. B4 was tested, and the “EC50” value was 2620 pM and the relative activity was 1.81%. B5 was tested, and the “EC50” value was 4780 pM and the relative activity was 0.52%. For B6, the “EC50” value was 6260 pM and the relative activity was 0.78%. For YSQGTFTSDYSKYLDEIHQKDFVNWLLAQ-NH2 [mt-109], the “EC50” value was 658 pM and the relative activity was 6.99%.
